Here are results for 14 molecules from US20200270359A1 (Genmab, published 2020).

Assay [1] concerns the target T1, cynomolgus monkey (Macaca fascicularis) CD37 (cynomolgus monkey (Macaca fascicularis), UniProt P11049 1-281 (human entry)).
T1 construct: also called mfCD37; Cynomolgus CD37
T1 chain: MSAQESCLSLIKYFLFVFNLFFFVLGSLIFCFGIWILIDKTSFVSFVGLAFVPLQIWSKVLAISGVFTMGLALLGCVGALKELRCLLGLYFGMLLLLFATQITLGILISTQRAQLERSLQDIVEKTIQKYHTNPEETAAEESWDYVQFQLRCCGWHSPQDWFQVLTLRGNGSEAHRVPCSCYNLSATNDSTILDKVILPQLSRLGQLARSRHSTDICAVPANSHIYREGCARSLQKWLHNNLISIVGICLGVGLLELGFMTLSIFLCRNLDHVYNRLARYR
Description: flow cytometry on CHO cells expressing cynomolgus monkey CD37. Here is the method:
(§1) Binding to cell surface expressed CD37 (Daudi cells, CHO cells expressing cynomolgus CD37) was determined by flow cytometry. Cells, resuspended in RPMI containing 0.2% BSA, were seeded at 100,000 cells/well in polystyrene 96 well round-bottom plates (Greiner bio-one Cat #650101) and centrifuged for 3 minutes at 300×g, 4° C. Serial dilutions (0.003-10 μg/mL final antibody concentration in 3.33× serial dilutions) of CD37 or control antibodies were added and cells were incubated for 30 minutes at 4° C. Plates were washed/centrifuged twice using FACS buffer (PBS/0.1% BSA/0.01% Na-Azide). Next, cells were incubated for 30 minutes at 4° C. with R-Phycoerythrin (PE)-conjugated goat-anti-human IgG F(ab′)2 (Jackson ImmunoResearch Laboratories, Inc., West Grove, Pa.; cat #: 109-116-098) diluted 1/100 in PBS/0.1% BSA/0.01% Na-Azide. Cells were washed/centrifuged twice using FACS buffer, resuspended in 30 μL FACS buffer and analyzed by determining mean fluorescent intensities using an Intellicyt iQue™ screener (Westburg). Binding curves were generated using non-linear regression (sigmoidal dose-response with variable slope) analyses within GraphPad Prism V6.04 software (GraphPad Software, Sand Diego, Calif., USA).
Binding to CHO cells expressing cynomolgus monkey CD37 was determined by flow cytometry using a method as described above.

Assay [2] addresses T2, human (Homo sapiens) CD37 (human (Homo sapiens), UniProt P11049 1-281).
T2 construct: Full-length protein on cells: endogenous on Daudi cells, Raji cells and B cells in human blood; also called Leukocyte Antigen CD37; GP52-40
T2 sequence: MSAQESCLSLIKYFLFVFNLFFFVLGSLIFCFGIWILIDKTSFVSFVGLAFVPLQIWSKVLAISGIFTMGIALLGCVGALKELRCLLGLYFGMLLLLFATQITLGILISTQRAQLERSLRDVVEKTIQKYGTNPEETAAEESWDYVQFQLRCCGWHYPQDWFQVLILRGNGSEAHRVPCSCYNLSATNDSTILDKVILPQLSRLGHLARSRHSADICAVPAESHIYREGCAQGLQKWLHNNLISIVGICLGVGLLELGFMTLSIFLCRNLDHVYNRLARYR
Description: flow cytometry on Daudi cells. The method, then: as §1

B1: IgG1-G28.1 (antibody)
heavy: not shown
light: DIQMTQSPASLSASVGETVTITCRTSENVYSYLAWYQQKQGKSPQLLVSFAKTLAEGVPSRFSGSGSGTQFSLKISSLQPEDSGSYFCQHHSDNPWTFGGGTELEIKRTVAAPSVFIFPPSDEQLKSGTASVVCLLNNFYPREAKVQWKVDNALQSGNSQESVTEQDSKDSTYSLSSTLTLSKADYEKHKVYACEVTHQGLSSPVTKSFNRGEC
notes: IgG1,kappa
As for B1, the binding result is listed as “no binding (tested: 0.003-10 µg/mL)” in assay [1] and “binds” in assay [2].

B2: IgG1-G28.1-E430G (antibody)
heavy: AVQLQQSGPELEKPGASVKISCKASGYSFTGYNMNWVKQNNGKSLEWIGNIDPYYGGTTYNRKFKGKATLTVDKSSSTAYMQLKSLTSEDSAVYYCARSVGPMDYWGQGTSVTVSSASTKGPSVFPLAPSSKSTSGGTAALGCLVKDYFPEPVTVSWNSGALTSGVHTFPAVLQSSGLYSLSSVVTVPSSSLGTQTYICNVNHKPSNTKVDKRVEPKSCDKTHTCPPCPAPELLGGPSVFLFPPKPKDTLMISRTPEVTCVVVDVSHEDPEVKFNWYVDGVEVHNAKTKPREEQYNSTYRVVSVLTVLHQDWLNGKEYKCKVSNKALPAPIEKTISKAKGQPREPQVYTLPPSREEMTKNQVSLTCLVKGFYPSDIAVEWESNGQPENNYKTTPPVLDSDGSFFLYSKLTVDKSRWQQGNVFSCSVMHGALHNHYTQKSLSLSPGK
light: DIQMTQSPASLSASVGETVTITCRTSENVYSYLAWYQQKQGKSPQLLVSFAKTLAEGVPSRFSGSGSGTQFSLKISSLQPEDSGSYFCQHHSDNPWTFGGGTELEIKRTVAAPSVFIFPPSDEQLKSGTASVVCLLNNFYPREAKVQWKVDNALQSGNSQESVTEQDSKDSTYSLSSTLTLSKADYEKHKVYACEVTHQGLSSPVTKSFNRGEC
notes: IgG1,kappa with E430G (EU numbering)
In the case of B2, the binding result in assay [1] is on record as “no binding (tested: 0.003-10 µg/mL)”; in assay [2], “binds”.

B3: IgG1-005-H1L2-E430G (antibody)
heavy: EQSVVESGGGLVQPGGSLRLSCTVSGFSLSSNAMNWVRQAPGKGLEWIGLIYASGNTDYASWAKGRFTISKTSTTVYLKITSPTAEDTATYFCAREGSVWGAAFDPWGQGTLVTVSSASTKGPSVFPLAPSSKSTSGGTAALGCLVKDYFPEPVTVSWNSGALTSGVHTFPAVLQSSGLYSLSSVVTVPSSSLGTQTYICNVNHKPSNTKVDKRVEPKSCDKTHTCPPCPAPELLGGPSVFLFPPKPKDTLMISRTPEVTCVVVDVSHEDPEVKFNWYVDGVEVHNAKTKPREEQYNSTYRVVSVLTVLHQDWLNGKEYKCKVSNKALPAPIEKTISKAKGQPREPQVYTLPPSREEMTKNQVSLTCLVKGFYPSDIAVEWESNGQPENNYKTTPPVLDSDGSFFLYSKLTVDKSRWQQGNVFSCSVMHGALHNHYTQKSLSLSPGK
light: AYDMTQSPSSVSASVGDRVTITCQASQSISNWLAWYQQKPGKAPKQLIYAASTLASGVPSRFKGSGSGTDFTLTISSLQPEDFATYYCQQGYSNSNIDNTFGGGTKVEIKRTVAAPSVFIFPPSDEQLKSGTASVVCLLNNFYPREAKVQWKVDNALQSGNSQESVTEQDSKDSTYSLSSTLTLSKADYEKHKVYACEVTHQGLSSPVTKSFNRGEC
notes: as for B2
Consider B3, for which the binding result in assay [1] and in assay [2] was “binds” throughout.

B4: IgG1-005-H1L2 (antibody)
heavy: not shown
light: AYDMTQSPSSVSASVGDRVTITCQASQSISNWLAWYQQKPGKAPKQLIYAASTLASGVPSRFKGSGSGTDFTLTISSLQPEDFATYYCQQGYSNSNIDNTFGGGTKVEIKRTVAAPSVFIFPPSDEQLKSGTASVVCLLNNFYPREAKVQWKVDNALQSGNSQESVTEQDSKDSTYSLSSTLTLSKADYEKHKVYACEVTHQGLSSPVTKSFNRGEC
notes: Humanized, IgG1,kappa
Regarding B4, the binding result in assay [2] is recorded as “binds”.

B5: IgG1-37.3 (antibody)
heavy: not shown
light: DIQMTQSPASLSVSVGETVTITCRASENIRSNLAWYQQKQGKSPQLLVNVATNLADGVPSRFSGSGSGTQYSLKINSLQSEDFGTYYCQHYWGTTWTFGGGTKLEIKRTVAAPSVFIFPPSDEQLKSGTASVVCLLNNFYPREAKVQWKVDNALQSGNSQESVTEQDSKDSTYSLSSTLTLSKADYEKHKVYACEVTHQGLSSPVTKSFNRGEC
notes: IgG1,kappa
As to B5, the binding result in assay [2] was “binds”.

B6: IgG1-37.3-E430G (antibody)
heavy: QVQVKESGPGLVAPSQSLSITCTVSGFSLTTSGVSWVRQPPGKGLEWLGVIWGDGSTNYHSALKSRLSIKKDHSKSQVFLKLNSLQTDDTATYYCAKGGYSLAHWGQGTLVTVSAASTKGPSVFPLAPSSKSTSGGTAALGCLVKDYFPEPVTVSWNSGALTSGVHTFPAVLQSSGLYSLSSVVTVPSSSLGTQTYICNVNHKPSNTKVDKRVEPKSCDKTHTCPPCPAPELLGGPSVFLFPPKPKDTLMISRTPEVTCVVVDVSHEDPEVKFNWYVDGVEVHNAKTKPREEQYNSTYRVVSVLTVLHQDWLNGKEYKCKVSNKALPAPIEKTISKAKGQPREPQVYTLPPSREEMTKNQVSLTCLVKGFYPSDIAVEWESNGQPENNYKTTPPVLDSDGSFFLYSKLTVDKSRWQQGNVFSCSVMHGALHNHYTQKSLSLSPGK
light: DIQMTQSPASLSVSVGETVTITCRASENIRSNLAWYQQKQGKSPQLLVNVATNLADGVPSRFSGSGSGTQYSLKINSLQSEDFGTYYCQHYWGTTWTFGGGTKLEIKRTVAAPSVFIFPPSDEQLKSGTASVVCLLNNFYPREAKVQWKVDNALQSGNSQESVTEQDSKDSTYSLSSTLTLSKADYEKHKVYACEVTHQGLSSPVTKSFNRGEC
notes: as for B2
As to B6, in assay [2], the binding result is listed as “binds”.

B7: IgG1-010-H5L2 (antibody)
heavy: not shown
light: AYDMTQSPSTLSASVGDRVTITCQASQNIIDYLAWYQQKPGKAPKLLIHKASTLASGVPSRFKGSGSGTEFTLTISSLQPDDFATYYCQQGYSNSNIDNTFGGGTKVEIKRTVAAPSVFIFPPSDEQLKSGTASVVCLLNNFYPREAKVQWKVDNALQSGNSQESVTEQDSKDSTYSLSSTLTLSKADYEKHKVYACEVTHQGLSSPVTKSFNRGEC
notes: Humanized, IgG1,kappa
Regarding B7, in assay [2], the binding result is “binds”.

B8: IgG1-010-H5L2-E430G (antibody)
heavy: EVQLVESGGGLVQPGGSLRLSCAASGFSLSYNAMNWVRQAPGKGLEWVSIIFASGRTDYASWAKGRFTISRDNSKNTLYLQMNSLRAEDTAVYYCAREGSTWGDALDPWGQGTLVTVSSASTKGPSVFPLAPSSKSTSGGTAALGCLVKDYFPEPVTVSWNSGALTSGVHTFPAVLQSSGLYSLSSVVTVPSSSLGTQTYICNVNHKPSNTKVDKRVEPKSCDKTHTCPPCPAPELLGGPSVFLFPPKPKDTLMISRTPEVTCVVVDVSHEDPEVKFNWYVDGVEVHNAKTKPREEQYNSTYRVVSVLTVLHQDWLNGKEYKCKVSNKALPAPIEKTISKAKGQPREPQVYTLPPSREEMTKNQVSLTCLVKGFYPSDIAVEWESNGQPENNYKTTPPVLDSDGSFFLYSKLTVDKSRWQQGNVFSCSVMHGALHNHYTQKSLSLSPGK
light: AYDMTQSPSTLSASVGDRVTITCQASQNIIDYLAWYQQKPGKAPKLLIHKASTLASGVPSRFKGSGSGTEFTLTISSLQPDDFATYYCQQGYSNSNIDNTFGGGTKVEIKRTVAAPSVFIFPPSDEQLKSGTASVVCLLNNFYPREAKVQWKVDNALQSGNSQESVTEQDSKDSTYSLSSTLTLSKADYEKHKVYACEVTHQGLSSPVTKSFNRGEC
notes: as for B2
For B8, the binding result in assay [1] and in assay [2] was “binds” each time.

B9: IgG1-016-H5L2-E430G (antibody)
heavy: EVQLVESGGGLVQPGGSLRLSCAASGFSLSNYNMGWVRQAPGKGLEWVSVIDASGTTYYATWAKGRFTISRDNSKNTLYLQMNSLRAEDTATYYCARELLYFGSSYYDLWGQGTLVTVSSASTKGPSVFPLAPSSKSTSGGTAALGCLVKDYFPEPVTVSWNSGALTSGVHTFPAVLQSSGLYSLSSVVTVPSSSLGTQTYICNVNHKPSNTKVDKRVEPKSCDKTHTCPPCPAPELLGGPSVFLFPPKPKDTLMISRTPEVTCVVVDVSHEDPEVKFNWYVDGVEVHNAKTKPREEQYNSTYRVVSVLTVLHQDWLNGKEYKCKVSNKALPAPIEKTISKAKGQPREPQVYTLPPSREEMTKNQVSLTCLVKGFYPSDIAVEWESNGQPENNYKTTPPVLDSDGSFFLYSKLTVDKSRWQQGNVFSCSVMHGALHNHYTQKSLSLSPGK
light: DVVMTQSPSTLSASVGDRVTITCQASQNIDSNLAWYQQKPGKAPKFLIYYASNLPFGVPSRFKGSGSGTEFTLTISSLQPDDFATYYCQCADVGSTYVAAFGGGTKVEIKRTVAAPSVFIFPPSDEQLKSGTASVVCLLNNFYPREAKVQWKVDNALQSGNSQESVTEQDSKDSTYSLSSTLTLSKADYEKHKVYACEVTHQGLSSPVTKSFNRGEC
notes: as for B2
B9: the binding result in assay [1] and in assay [2] was “binds” each time.

B10: IgG1-016-H5L2 (antibody)
heavy: not shown
light: DVVMTQSPSTLSASVGDRVTITCQASQNIDSNLAWYQQKPGKAPKFLIYYASNLPFGVPSRFKGSGSGTEFTLTISSLQPDDFATYYCQCADVGSTYVAAFGGGTKVEIKRTVAAPSVFIFPPSDEQLKSGTASVVCLLNNFYPREAKVQWKVDNALQSGNSQESVTEQDSKDSTYSLSSTLTLSKADYEKHKVYACEVTHQGLSSPVTKSFNRGEC
notes: Humanized, IgG1,kappa
Consider B10, for which the binding result in assay [2] was “binds”.

B11: IgG1-016-H5L2-F405L-E430G (antibody)
heavy: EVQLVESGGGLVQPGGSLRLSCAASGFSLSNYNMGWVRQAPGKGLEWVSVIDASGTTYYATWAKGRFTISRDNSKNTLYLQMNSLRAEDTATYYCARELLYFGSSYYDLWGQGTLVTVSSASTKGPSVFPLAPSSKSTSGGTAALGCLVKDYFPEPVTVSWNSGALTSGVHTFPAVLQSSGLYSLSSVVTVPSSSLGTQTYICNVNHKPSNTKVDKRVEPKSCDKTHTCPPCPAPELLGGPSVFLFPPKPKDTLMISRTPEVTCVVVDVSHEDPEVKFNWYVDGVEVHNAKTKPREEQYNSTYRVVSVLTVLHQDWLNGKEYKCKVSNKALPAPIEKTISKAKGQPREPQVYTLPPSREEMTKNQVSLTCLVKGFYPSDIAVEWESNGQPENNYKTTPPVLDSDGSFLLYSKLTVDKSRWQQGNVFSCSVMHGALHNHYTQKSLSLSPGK
light: DVVMTQSPSTLSASVGDRVTITCQASQNIDSNLAWYQQKPGKAPKFLIYYASNLPFGVPSRFKGSGSGTEFTLTISSLQPDDFATYYCQCADVGSTYVAAFGGGTKVEIKRTVAAPSVFIFPPSDEQLKSGTASVVCLLNNFYPREAKVQWKVDNALQSGNSQESVTEQDSKDSTYSLSSTLTLSKADYEKHKVYACEVTHQGLSSPVTKSFNRGEC
notes: IgG1,kappa with F405L and E430G (EU numbering)
For the molecule B11, in assay [2], the binding result is recorded as “binds”.

B12: IgG1-016-H5L2-LC90S-F405L-E430G (antibody, V domains shown)
VH: EVQLVESGGGLVQPGGSLRLSCAASGFSLSNYNMGWVRQAPGKGLEWVSVIDASGTTYYATWAKGRFTISRDNSKNTLYLQMNSLRAEDTATYYCARELLYFGSSYYDLWGQGTLVTVSS
VL: DVVMTQSPSTLSASVGDRVTITCQASQNIDSNLAWYQQKPGKAPKFLIYYASNLPFGVPSRFKGSGSGTEFTLTISSLQPDDFATYYCQSADVGSTYVAAFGGGTKVEIKR
notes: IgG1,kappa; light chain C90S, heavy chain F405L and E430G (EU numbering)
On to B12, for which, in assay [2], the binding result is “binds”.

B13: IgG1-004-H5L2 (antibody)
heavy: not shown
light: AQVLTQSPSPLSASVGDRVTITCQASQSVYNSQNLAWYQQKPGKAPKLLIYEASKLASGVPSRFKGSGSGTEFTLTISSLQPDDFATYYCQGEFSCISADCTAFGGGTKVEIKRTVAAPSVFIFPPSDEQLKSGTASVVCLLNNFYPREAKVQWKVDNALQSGNSQESVTEQDSKDSTYSLSSTLTLSKADYEKHKVYACEVTHQGLSSPVTKSFNRGEC
In the case of B13, the binding result in assay [2] was “binds”.

B14: IgG1-004-H5L2-E430G (antibody)
heavy: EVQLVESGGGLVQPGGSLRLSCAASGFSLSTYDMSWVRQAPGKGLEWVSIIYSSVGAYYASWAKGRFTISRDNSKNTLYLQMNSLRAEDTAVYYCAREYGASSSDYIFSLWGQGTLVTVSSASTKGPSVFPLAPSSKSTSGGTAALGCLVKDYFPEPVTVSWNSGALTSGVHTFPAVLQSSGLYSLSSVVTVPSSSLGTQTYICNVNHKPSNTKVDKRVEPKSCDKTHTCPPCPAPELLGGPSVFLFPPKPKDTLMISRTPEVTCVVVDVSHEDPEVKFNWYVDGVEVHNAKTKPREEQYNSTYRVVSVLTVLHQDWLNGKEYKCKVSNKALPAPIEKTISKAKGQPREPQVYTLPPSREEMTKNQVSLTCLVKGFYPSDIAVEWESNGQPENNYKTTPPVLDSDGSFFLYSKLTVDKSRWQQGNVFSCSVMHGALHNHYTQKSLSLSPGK
light: AQVLTQSPSPLSASVGDRVTITCQASQSVYNSQNLAWYQQKPGKAPKLLIYEASKLASGVPSRFKGSGSGTEFTLTISSLQPDDFATYYCQGEFSCISADCTAFGGGTKVEIKRTVAAPSVFIFPPSDEQLKSGTASVVCLLNNFYPREAKVQWKVDNALQSGNSQESVTEQDSKDSTYSLSSTLTLSKADYEKHKVYACEVTHQGLSSPVTKSFNRGEC
notes: as for B2
For B14, the binding result in assay [1] and in assay [2] was “binds” in each case.
